Test results taken from the supplement of paper PMC12764529.
± gives the half width of the 95% confidence interval.

Columns and labels:
[1] = folding stability dG unfold (combined trypsin and chymotrypsin); higher = more stable
Outline: (§1)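 Designed mini-proteins (under 80 residues, no cysteine) in a PA-tagged cDNA display construct were digested with trypsin and chymotrypsin. Each protease was used at 11 concentrations (threefold dilutions) plus a no-protease condition, followed by sequencing. K50 was inferred by Bayesian fitting of sequencing counts, and unfolding free energy was derived against a sequence-predicted unfolded-state K50 and a shared folded-state K50, per protease or combined. Only designs with AlphaFold2 dimer inter-PAE above 15 were kept.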

[2] = folding stability dG unfold from trypsin proteolysis; higher = more stable
Outline: as §1

[3] = folding stability dG unfold from chymotrypsin proteolysis; higher = more stable
Outline: as §1

| Sequence | folding stability dG unfold [1] | folding stability dG unfold [2] | folding stability dG unfold [3] |
| --- | --- | --- | --- |
| SAGGSAGGSAGGYLEAPIVIKIEFQIYDPDDGDPIATYEHTIMIPIEIELPPPPDPDNDSAGGSAGGSAGGS [r10_50_TrROS] | 2.18 ± 0.23 kcal/mol | 1.97 ± 0.21 kcal/mol | 2.28 ± 0.17 kcal/mol |
| SAGGSAGGSAGGYVGPDQPVIIVEVKVKGARIGKDGKIYYDFEVERIEIREVEEGDNLGSAGGSAGGSAGGS [r10_826_TrMRF] | 1.82 ± 0.17 kcal/mol | 2.05 ± 0.21 kcal/mol | 1.9 ± 0.088 kcal/mol |
| SAGGSAGGSAGIDPPDIKLRVESELGPGPVRRLLVYLEGPGELVLVDVPADGSVSVSIFPSAGGSAGGSAGG [r11_55_TrMRF] | 2.9 ± 0.23 kcal/mol | 2.85 ± 0.18 kcal/mol | 2.9 ± 0.28 kcal/mol |
| SAGGSAGGSAGIGSKKPVIKKNIEIEPEIKVEGGKGGSKVKIEYKAKIEIKVYIISKNNPSAGGSAGGSAGG [r17_186_TrMRF] | 1.98 ± 0.4 kcal/mol | 1.28 ± 0.22 kcal/mol | 2.15 ± 0.13 kcal/mol |
| SAGGSAGGSAGIKIEWEQMPGGYMQYKVTIPDPNGKPLKIDVHYKSPEDAEEKAKELLKSSAGGSAGGSAGG [r11_819_TrROS] | 0.333 ± 0.2 kcal/mol | 0.215 ± 0.089 kcal/mol | 0.386 ± 0.26 kcal/mol |
| SAGGSAGGSAGITIWFPYDNIPEILEEAQKNGMEIKSVERVPDGWYLIKMPGKPIEIHIWSAGGSAGGSAGG [r17_379_TrROS] | 1.33 ± 0.07 kcal/mol | 0.94 ± 0.032 kcal/mol | 1.55 ± 0.06 kcal/mol |
| SAGGSAGGSAGIWIPIKDPKEAVDYIQEWFHKKGGYDINIEPTEVYPDGWVRVEINIEPKSAGGSAGGSAGG [r17_430_TrROS] | 1.06 ± 0.26 kcal/mol | 0.151 ± 0.1 kcal/mol | 1.26 ± 0.18 kcal/mol |
| SAGGSAGGSAGKAKIEVVEVDKNGKVRLKIKLENGEVKEIENADEITINGKKIKVEKIEPSAGGSAGGSAGG [r11_1017_TrROS_Hall] | 1.11 ± 0.1 kcal/mol | -0.311 ± 0.25 kcal/mol | 1.52 ± 0.042 kcal/mol |
| SAGGSAGGSAGKDIAKNIPPGAKILPIEPQPRGGGLYVKIEIEMPDPNGKKEKVTFTFPISAGGSAGGSAGG [r17_140_TrROS] | 0.366 ± 0.26 kcal/mol | -0.467 ± 0.14 kcal/mol | 0.589 ± 0.26 kcal/mol |
| SAGGSAGGSAGKEEIKIEITKVEPLEDGSYIAEVIATPKNGKKIPYTALIDPKTGKITIGSAGGSAGGSAGG [r11_31_TrMRF] | 0.426 ± 0.087 kcal/mol | 0.527 ± 0.11 kcal/mol | 0.18 ± 0.14 kcal/mol |
| SAGGSAGGSAGKIEIDPSKPALVRVRLVPENGIPREIVVEAGDLSKLLPENFKVLSIELGSAGGSAGGSAGG [r17_449_TrMRF] | 0.407 ± 0.067 kcal/mol | 0.295 ± 0.09 kcal/mol | 0.397 ± 0.06 kcal/mol |
| SAGGSAGGSAGKIELTNIQVWPGPNGRPWISMTISFPDGPVTIWIPFDNPDNIEIEIKPGSAGGSAGGSAGG [r17_64_TrROS] | 2.82 ± 0.084 kcal/mol | 2.63 ± 0.1 kcal/mol | 3.02 ± 0.043 kcal/mol |
| SAGGSAGGSAGKIEVEGDVEVTVFPPYGLATVTTPNGERYVLLVETRPDGSKRVLLFSAGSAGGSAGGSAGG [r11_331_TrMRF] | 2.26 ± 0.045 kcal/mol | 2.02 ± 0.039 kcal/mol | 2.37 ± 0.026 kcal/mol |
| SAGGSAGGSAGKIKIEKDKNGNYRVILKNGKVYEFKSIEEAKEELKKKFPNIKEIEIVKTSAGGSAGGSAGG [r11_806_TrROS_Hall] | 3.87 ± 0.3 kcal/mol | 3.21 ± 0.18 kcal/mol | 4.29 ± 0.29 kcal/mol |
| SAGGSAGGSAGKIRDPNGNPFQIKDVEVEPPGPGDPYISIEYPDNGEEFTLPPEDAEDLFSAGGSAGGSAGG [r17_517_TrROS] | 1.64 ± 0.27 kcal/mol | 0.95 ± 0.038 kcal/mol | 2.13 ± 0.052 kcal/mol |
| SAGGSAGGSAGKKEKVILLPVDAEPDETPEELAKKLKELNPDVEVLGFDPETGYVLVKVPSAGGSAGGSAGG [r11_465_TrMRF] | 0.149 ± 0.18 kcal/mol | 0.107 ± 0.053 kcal/mol | -0.0143 ± 0.28 kcal/mol |
| SAGGSAGGSAGKKELTFKDKNGKTITVTLEDGEIKEIKIEKPPKPKVVKTEKKYVPKEELSAGGSAGGSAGG [r17_287_TrROS_Hall] | 0.135 ± 0.4 kcal/mol | 0.0355 ± 0.16 kcal/mol | 0.0761 ± 0.069 kcal/mol |
| SAGGSAGGSAGKKITIPNLDVMRNPDDGMAFIQFGGQMIMIPPNVKIEQDPNGWMEIELPSAGGSAGGSAGG [r17_34_TrROS] | 0.144 ± 0.12 kcal/mol | 0.625 ± 0.064 kcal/mol | -0.845 ± 0.69 kcal/mol |

| Sequence | folding stability dG unfold [1] | folding stability dG unfold [2] | folding stability dG unfold [3] |
| --- | --- | --- | --- |
| SAGGSAGGSAGKKITLPNATITYDEETGEVTITVDGKTITLPPGAKIEVDENGNLTIYLPSAGGSAGGSAGG [r17_34_TrROS_Hall] | 2.55 ± 0.12 kcal/mol | 2.45 ± 0.1 kcal/mol | 2.71 ± 0.075 kcal/mol |
| SAGGSAGGSAGKKKILLKFKSAEEALEAIKKGKTIKLKNGKTVKVKKVTLDKNGYLLIELSAGGSAGGSAGG [r11_48_TrROS_Hall] | 2.44 ± 0.06 kcal/mol | 2.23 ± 0.034 kcal/mol | 2.547 ± 0.021 kcal/mol |
| SAGGSAGGSAGKKKKIFLIKIEVVKVKVEKRKKKDGKLEEKVEIEIKIEITEIPLPPELLSAGGSAGGSAGG [r11_24_TrROS_Hall] | 2.94 ± 0.19 kcal/mol | 2.81 ± 0.12 kcal/mol | 3.02 ± 0.058 kcal/mol |
| SAGGSAGGSAGKKKKKPKPIVLVIKVKTKEEAEKLAEKLKELGFKVEIVEKKDGYLVIKLSAGGSAGGSAGG [r17_323_TrROS_Hall] | 3.39 ± 0.18 kcal/mol | 2.11 ± 0.12 kcal/mol | 3.8 ± 0.15 kcal/mol |
| SAGGSAGGSAGKKKLRLTLPGAEVEYDAATNELTIRLKAPPPPPKTTTKVETKTVLLPGKSAGGSAGGSAGG [r11_149_TrROS_Hall] | 0.989 ± 0.18 kcal/mol | 0.792 ± 0.076 kcal/mol | 1.2 ± 0.095 kcal/mol |
| SAGGSAGGSAGKKTVVIKDAEIVEVEEENGYLKVRIKVTNPDGSEEEFTFTFKPGDVIELSAGGSAGGSAGG [r11_211_TrROS_Hall] | 2.71 ± 0.17 kcal/mol | 2.01 ± 0.07 kcal/mol | 3.11 ± 0.059 kcal/mol |
| SAGGSAGGSAGKKVLVLSEDEIAELLGLSKEEIENMSEEEKEKLALELAKKLGIDEVIITSAGGSAGGSAGG [r11_80_TrROS_Hall] | 3.54 ± 0.055 kcal/mol | 3.76 ± 0.11 kcal/mol | 3.31 ± 0.094 kcal/mol |
| SAGGSAGGSAGKLKIKKVKVVKTETFTLPNGYTIKVSYVEVEVDGKKYLFKSVEIYPKKESAGGSAGGSAGG [r11_129_TrROS_Hall] | 2.85 ± 0.15 kcal/mol | 2.02 ± 0.1 kcal/mol | 3.09 ± 0.033 kcal/mol |
| SAGGSAGGSAGKLPPGAKVEEVFEVEIEVTYLNPDTGEEVEKEKITVRVVKVDGKLVIEFSAGGSAGGSAGG [r11_415_TrROS_Hall] | 2.04 ± 0.25 kcal/mol | 1.39 ± 0.11 kcal/mol | 2.79 ± 0.31 kcal/mol |
| SAGGSAGGSAGKLYIIRIKGKKIILSEDEVEKLKKKYPNAEIIPFKSKEDAEKALKKLKESAGGSAGGSAGG [r11_60_TrROS_Hall] | 2.52 ± 0.13 kcal/mol | 2.16 ± 0.057 kcal/mol | 2.75 ± 0.079 kcal/mol |
| SAGGSAGGSAGKMKIRVKIKRKDGKTLVIEGMSLEEIKELAEKEGFEIEKVEVVEVEPEESAGGSAGGSAGG [r11_283_TrROS_Hall] | 4.02 ± 0.21 kcal/mol | 3.23 ± 0.26 kcal/mol | 4.24 ± 0.13 kcal/mol |
| SAGGSAGGSAGKMLLIEIEVDGKKYLIEIEVPEGEEITPEELAKLLGIPNVKVKVYELEESAGGSAGGSAGG [r11_219_TrROS_Hall] | 3.11 ± 0.13 kcal/mol | 2.47 ± 0.065 kcal/mol | 3.41 ± 0.04 kcal/mol |
| SAGGSAGGSAGKMYRITVTNENGEKLEIEVPEEVKTEEELKEELKKKIPNVVEVKIEEVPSAGGSAGGSAGG [r11_311_TrROS_Hall] | 0.377 ± 0.25 kcal/mol | 0.242 ± 0.096 kcal/mol | 0.433 ± 0.14 kcal/mol |
| SAGGSAGGSAGKPEVEVETRLIKIDEEKGYYLRVTRVRVKNEDGSEFEFLSIEIIPKEDLSAGGSAGGSAGG [r11_51_TrROS_Hall] | 3.56 ± 0.071 kcal/mol | 2.6 ± 0.098 kcal/mol | 3.91 ± 0.052 kcal/mol |
| SAGGSAGGSAGKPKKKPPKPKIETKTITVTITNKDGSKTTVTATIVRNKDTNELFIRISSSAGGSAGGSAGG [r11_1024_TrROS_Hall] | 2.98 ± 0.22 kcal/mol | 3.07 ± 0.16 kcal/mol | 3.13 ± 0.12 kcal/mol |
| SAGGSAGGSAGKPLKVKKFEVELLVRDPETNRWYRIRAEVYRVEGLPDLFIIKLEIEELPSAGGSAGGSAGG [r11_1029_TrROS_Hall] | 4.6 ± 0.11 kcal/mol | 3.96 ± 0.12 kcal/mol | 4.82 ± 0.099 kcal/mol |
| SAGGSAGGSAGKPNIKKEANLEIFVTEDELEKALEIVKKLEEEGIEVKEAKIYVLKPEEGSAGGSAGGSAGG [r11_533_TrMRF] | -0.318 ± 0.21 kcal/mol | -0.858 ± 0.23 kcal/mol | -0.299 ± 0.39 kcal/mol |
